This data set in a line: yeast display, Sf9 membrane polyspecificity reagent, FACS + sequencing; frameworks hold sequencing errors. Summed up: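 Using colony PCR, genes from sorted yeast display clones were amplified, then sequenced on MiSeq at 2 × 250 and filtered by CDR length. The clones had been stained with 10% biotinylated, detergent-solubilized Sf9 membrane reagent for 1 hour at 4 °C and sorted by FACS into low and high (top ~1%) gates on anti-HA and streptavidin fluorescence. Polyreactivity labels come from the gate of origin.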
Consider “QVQLVESGGGLVQAGGSLRISCAASGLIFYGYVMGWYRQAPGKEREFVAAITLSGGRTYYADSVKGRFTISRDNAKNTVYLQMNSLKPEDTAVYYCAARGPFRPYGAVGRQYDYWGQGTQVTVSS”, for which the “polyreactivity (PSR sort gate)” value is “high polyreactivity”.
To “QVQLVESGGGLVQAGGSLRLTCAASGRIFRYYAMGWYRQAPGKERELVATISRGGSTTYADSVKGRFTISRDNAKNTVYLQMNSLKPEDTAVYYCDARFGSTYDYWGQGTQVTVSS” belongs “low polyreactivity”; to “QVQLEETGGGLVQAGGSLLLSCEASGLTIHPYAMGWYRHAPGKERELVAAISSRGTSTYYADSVKWRFTISRDTAKNTVYLQMNSLKPEDTAVYYCAARHGPRAEAMYYWGQGPQVTVSS”, “high polyreactivity”.
Turning to “QVQLVESGGGLVQAGGSLRLSCAASGVIFGYYAMGWDRQAPGKERELVAAITLSGSRTYYADSVTGRFTISRDTAKNTVDLQMNSLKPEDTAVYYCAKRRYWYYRSRDWFVSGDYWGQGTQVTVSS”, the “polyreactivity (PSR sort gate)” value is “low polyreactivity”.
To “QVQLVESGGGLVQAGGSLRLSCAASGRTFRKYAMGWYRQAPGKERELVAGITSIGGRTYYADSVKGRFTISRDNAKNTVYLQMNSLKPEDTAVYYCAAEPYGGGVKHSAYDYCGQGTQVTVSS” belongs “low polyreactivity”; to “QVQLVESGGGLVQAGGSLRLSCDASGSTFDSYAMGWYRQAPGKERELVAAINQGGGSTYYADSVKGRFTISRDNAKNTVYLQMNSLKPEDTAVYYCGADRSGSFYKLDYWGQGTQVTVSS”, “low polyreactivity”; to “QVQLVESGGGLVQAGGSLRLSCAASGLIFVQYVMGWYRQAPGKERELVAAITDDGNTYYADSVKGRFTISRDNAKNTVYLQMKSLKPEDTAVYYCNAVLRSYDFWPGYGYWGQGTQVTVSS”, “low polyreactivity”.
To “QVQLVESGGGLVQAVGSLRLSCAASGYFFSSNAMGWYSQSPGKERELVAAITASGGGTYYADSVKGRFTISRDNAQNTVYIQMKSLKPEDTAVYYCAADFNDHYYWYGQDFDYWGQGTQVTVSS” belongs “low polyreactivity”; to “QVQLVESGGGLVQAGGSLRLSCAASGSTFGWNAMGWYRPAPGKERELVAAISSSGGSTNYADSVKGRFTISRDNAKNTVYLQMNSLKPEDTAVYYCAARYRTLTKYYWGQGTQVTVSS”, “low polyreactivity”.
To “QVQLVESGGGLVQAGGSLRLSCAASGSTLRWYAMGWYRQAPGKERELVARISWTTGSTYYADSVKGRFTISRDNAKNTVYLQMNSLKPEDTAVYYCAKGKKSSRSGIYNYWGQGTQVTVSS” belongs “high polyreactivity”; to “QVQLVESGGALVHAGGSLRLTCAASGYTFRYYAMRWYRQAPGKERELVARINRSGGSTYYADSVKGRFTISRDNAKNTVYLQMNSLKPEDTAVYYCNRDYGWHYSYEYWGQGTQVTVSS”, “high polyreactivity”.
In the case of “QVQLVESVGGLVQAGGSLRLSCAASGSNFRGYAMGWYRQAPGKERELVAAISWSGVSTYYADSVKGRFTISRDNAKNTVYLQMNSLKPEDTAVYDCAAGYSSAYLRFGYWGQGTQVTVSS”, the “polyreactivity (PSR sort gate)” value was “low polyreactivity”.
To “QVQHVESGGGLVQAGGSLRLSCAASAIIFGDYAMGWYRQAPGKETELVAAINLDGTSTYYADSVKGRFTISRDIAKHSVYLQINSLKTEDTAGFYCAAVPDKYCCRVRRYLFEHNYWGQGTQVTVSS” belongs “low polyreactivity”.
On to “QVQLVESVGGLVQAGGSLRLSCAASGRTFAQNALGWYRQAPGKERELVAAIRSGGRTNYADSVKGRFTISRDNAKNTVYLQMNSLKPEDTAVYYCAAEWGYWSFYLGRAKVEYWGQGTQVTVSS”, for which the “polyreactivity (PSR sort gate)” value is “low polyreactivity”.
To “QVQLVESGGGLVQAGGSLRLSCAASGRIFYNYAMGWYRQAPGKERELVAAISGSGGSTYYADSVKGRFTISRDNAKNTVYLQMNSLKPEDTEVYYCSTSGPQYYSRNFDYWGQGTQVTVSS” belongs “low polyreactivity”; to “QVQLVESGGGLVQAGGSLRLSCAASGFTFYAYAMGWYRQAPGKERELVAAISGSGGRTYYADSVKGRFTISRDNAKNTVYLQMNSLKPEDTAVYYCAADRPGGSYDYWGQGTQVTVSS”, “high polyreactivity”.
To “QVQLVESGGGLVQAGGSLRLSCAASGRIFRPYAMGWYRQAPGKERELVAAITQSGGITSYADSVKGRFTISRDNAKYTVYLQMNSLKPEDTAVYYCAADDFTTAGFGMDYWGEGTQVTVSS” belongs “low polyreactivity”; to “QVQLVESGGGLVQAGGSLRLSCAASGSIFKIYAMGWDRQAPGKERELVASITGSGGSTYYADSVKGRFTISRDNAKNTVYLQMNSLKPEDPAVYYCAVEAWSVPPYDYWGQGTQVTVSS”, “low polyreactivity”; to “QVQIVESGGGLVQPGGSLRLSCAASGITFYKYAMGWYRPAPGKERELLAAISKSGGRTYYADSVKGRFTISRDNAKNTVYLQMNSLKPEDTAVYYCNAQPNYAYHGEDDYWGQGNQVTVSS”, “high polyreactivity”.
To “QVQLVESGGGLVQAGGSLRLSCAASGSTFVKSAMGLYRQAPGKERELVAAINWSGGNTYYADSVKGRFKISRYNAKNTVYLQMNSLKPEETAVYYCNADAYRSDFDYWGQGTQVTVSS” belongs “high polyreactivity”; to “QVQHVESGGGLGQAGGSLRLSCAASGSTFRSYAMGWYRQAPGKERELVAVISSGDSTYYADSLKGSFKISRDNAKNTVYLQMNSLKPDDTAVYYCAADSYFLVRWYGYWGQGTQVTVSS”, “low polyreactivity”; to “QVQLVESGGGLVQAGGSLRLSCAASGLILHKYAMGGSRQAPGKERELVASINSGANTNYADSVKGRFTISRDNAKNTVYLQMNSLKPEDTAVYYCNADPGFRSGDYGYSSFDYWGQGTQVTVSS”, “low polyreactivity”.
Turning to “QVQLVESGGGLVQAGGSLRLSCAASGSTFDIYAMGWYRQAPGKERELVAAIRGRGGSTYYADSVKGRFTISRDNAKNTVYFQMNSLKPEDTAVYYCAADSYATRYYYWGQGTQVTVSS”, the “polyreactivity (PSR sort gate)” value is “high polyreactivity”.
To “QVQLVESGGGLVQAGGSLRVSCAASGIIFVVYDMGWYRQAPGKERELVAAINWSGGSTYYADSVKGRFTISRDNAKNTVYLQMNSLKPEDTAVYYCAAESFSDGSPYNYWGQGTQVTVSS” belongs “low polyreactivity”; to “QVQLVESGGGLVQAGGSLRLSCAASGRTFNGYAMGWYRQAPGKERELVASISWSGGRTYYADSVKGRFTISRDNAKNTVYFQMNSLKPEDTAVYYCAATFVNVVGYDYWGQGTQVTVST”, “high polyreactivity”; to “QVQLVESGGGLVQAGCTLRLSCAASGSIAYNAMGWYRQAPGKERELVASIRASGGRTYYADSVKGRFTISRDNAKNSVYLQMNSLKPEDTAVYYCAAYHGSKPLHHKGYDYWGQGTQVSVSS”, “low polyreactivity”.
To “QVQLVESGGGLVQEGGSLRLSCAASGFIFGWYGMGWYRQPPGKDSELFAAITWSGVRTYYADSVKGRFTISRDNAKNTVYLQMISLKPEDTAVYYCARAGGYVGRGYKDQDGRGDYWGQGTQVTVSS” belongs “high polyreactivity”; to “QVQLVESGGGLVQAGGSLRLSCPASGSTFSWYAMGWSRQEPGKERELVAAISYSGGTYYADSVKGRFTISRDNAKNTVYLQKNSLKPEDTAVYYCAAQRTRYGYDYWGQGTQVTVSS”, “high polyreactivity”; to “QVQLVESGGGLVQAGGSLRLSCAASGGILYYYAMGWYRQAPGKERELVAGISVRGGRTNYADSVKGRFTISRDNAKNTVYLQMNSLKPEDTAVYYCAAETLYTSGYGSWGQGTQVTVSS”, “low polyreactivity”.
To “QVQLVESGGGLVQAGGSLRISCAASGITLINDAMGWYRQAPGKERELVAAITYRGVSTYYADSVKGRFTISRDNAKNTVYLQMKSLKPEDTAVYYCAAGYYWQYTSSSAQYSYDYWGQGTQVTVSS” belongs “low polyreactivity”; to “QFQLVESGGGLVQAGGSLRLSCAASGFTYYFYAMGWYRPAPGKERELVAAISRGGSTTYADSVKGRFTISRDNAKNTVYLQMYSLKPEDTAVYYCGADDYYDPHYEYDFWGQGTQVTVSS”, “low polyreactivity”.
Regarding “QVQLVESGGGEVQEGGILRLSCAASGSIFSRNSMGWYRQAPGKDRELVAAITWSGGSTYYADSVKGRFTISRDNAKYTVYLLMNSLKPEDTAVYYCNADFAGTPNQYDYWGQGTQVTVSA”, the “polyreactivity (PSR sort gate)” value was “high polyreactivity”.
To “QVQLVESGGGLVQAGGSLRLSCAASGSIFNGYVMGWYTQAPGKERELVAANSRSGGRTYYADSVKGRFTISRDNAKNTVYLQMNSLKPEDTAVYYCAARNYLYAIMGKWLDYNYWGQGTQVTVSS” belongs “high polyreactivity”.
To “QVQLVESGGGLVQAGGSLRLSCAASGRIFHRYAMGWDRQAPGKERELVAAINWRTGNTYYADSVKGRFTISRDNAKNTVYLQMNSLTPEDTAVYYCNARYRSDYWGIQYDYWGQGTQVTVSS” belongs “high polyreactivity”; to “QVQLVESGGGLVQAGGSLRLSCAASGLTFSRNAMGWYRQAPGKERELFATINSGGRTNYADSVKGRFTISRDNAKNTVYLQMNSQKPEDTAVYYCAVRTYSNYRAIVPYCRYDYWGQGTQVTVSS”, “high polyreactivity”.
“QVQLVESGGGLVQAGGSLRLSCAASGRIFTGYAMGWNRQAPGKERELVAAISRGGSTNYADSVKGRFTISRDNAKNSVYLQMNSLKPEDTAVYYCAAGVHWDRGDYWGQGTQVTVSS”: the “polyreactivity (PSR sort gate)” value was “low polyreactivity”.
To “QVQLVESGGGLVQAGGSLRLSCAASGFTFDENAMGWYRQAPGINYSGASTYYADSVKGRFTISRDNAKNTVYLQMNSVKPEDTAVYYCAAEVVAQMNYCGQGTQVTVSS” belongs “low polyreactivity”; to “QVQLVESGGGLVQAGGSLRLSCSASGYTIDLYAKGWYRQAPGKERELVAAISIRGGSTYYADSVKGRFTISRDNAKNTVYLQMNSLKPEDTAVYYCATVTYRRSYIAYRGTGDYDYWGQGTQVTVSS”, “low polyreactivity”; to “QVKLVESGGGLVQSGGSLRLRCAASGSTITGYAMGWYRQAPRKERDLVAAITYTGTSTYYADTVKGRYTISRDNAKNTVYLEMNSLNPEDTAVYYCAARLAWWKTYIRYYYWGKGTQVTVSS”, “high polyreactivity”.
In the case of “QVQLVESGGGLVQAGGSLRLSCAASGRTSYINAMGWYRPAPGKERELVAAITVRAGRTYYADSVKGRFTISRDNANKTVYLQMNSLKPEDTAVYYCAAGVSEGSGDLYYWGQGTQVTVSS”, the “polyreactivity (PSR sort gate)” value is “low polyreactivity”.
To “QFQLVESGGGLVQAGGSLRLSCAASGSIYRLNTMGWYRQAPGKERELVAAMSRRGGSTYYADSVKGRFTISRDNAKNTVYIQMNSLKPEDTAVYYCSADVTSFRHAPGYEYWGQGTQVTVSS” belongs “high polyreactivity”.

The values are drawn from the nanobody polyreactivity screen of Harvey et al. (2022).
